# Source: patent publication US20100285597A1, “DETECTION OF FRAGMENTS OF NECTIN-1 FOR THE DIAGNOSIS OF ALZHEIMER'S DISEASE” (UNIVERSITY OF ROCHESTER, priority 2007, published 2010)
# Changes are numbered by the printed parent chain. Numbers in names are those of the source.
# B1: Δ28-333: nectin-1 ectodomain truncation mutant, V5 and flag tagged (protein)
# chain: PYTPSPPEHGRRAGPVPTAIIGGVAGSILLVLIVVGGIVVALRRRRHTFKGDYSTKKHVYGNGYSKAGIPQHHPPMAQNLQYPDDSDDEKKAGPLGGSSYEEEEEEEEGGGGGERKVGGPHPKYDEDAKRPYFTVDEAEARQDGYGDRTLGYQYDPEQLDLAENMVSQNDGSFISKKEWYV
# modifications: left off: small tags and cut ends
# notes: nectin-1 ectodomain truncation mutant, V5 and flag tagged
# B2: Δ28-250: nectin-1 ectodomain truncation mutant, V5 and flag tagged (protein)
# chain: FDGNWYLQRMDVKLTCKADANPPATEYHWTTLNGSLPKGVEAQNRTLFFKGPINYSLAGTYICEATNPIGTRSGQVEVNITEFPYTPSPPEHGRRAGPVPTAIIGGVAGSILLVLIVVGGIVVALRRRRHTFKGDYSTKKHVYGNGYSKAGIPQHHPPMAQNLQYPDDSDDEKKAGPLGGSSYEEEEEEEEGGGGGERKVGGPHPKYDEDAKRPYFTVDEAEARQDGYGDRTLGYQYDPEQLDLAENMVSQNDGSFISKKEWYV
# modifications: left off: small tags and cut ends
# notes: as for B1
# B3: Δ28-349: nectin-1 ectodomain truncation mutant, V5 and flag tagged (protein)
# chain: PTAIIGGVAGSILLVLIVVGGIVVALRRRRHTFKGDYSTKKHVYGNGYSKAGIPQHHPPMAQNLQYPDDSDDEKKAGPLGGSSYEEEEEEEEGGGGGERKVGGPHPKYDEDAKRPYFTVDEAEARQDGYGDRTLGYQYDPEQLDLAENMVSQNDGSFISKKEWYV
# modifications: left off: small tags and cut ends
# notes: as for B1
# B4: Δ28-324: nectin-1 ectodomain truncation mutant, V5 and flag tagged (protein)
# chain: QVEVNITEFPYTPSPPEHGRRAGPVPTAIIGGVAGSILLVLIVVGGIVVALRRRRHTFKGDYSTKKHVYGNGYSKAGIPQHHPPMAQNLQYPDDSDDEKKAGPLGGSSYEEEEEEEEGGGGGERKVGGPHPKYDEDAKRPYFTVDEAEARQDGYGDRTLGYQYDPEQLDLAENMVSQNDGSFISKKEWYV
# modifications: left off: small tags and cut ends
# notes: as for B1
# B5: Δ28-300: nectin-1 ectodomain truncation mutant, V5 and flag tagged (protein)
# chain: GPINYSLAGTYICEATNPIGTRSGQVEVNITEFPYTPSPPEHGRRAGPVPTAIIGGVAGSILLVLIVVGGIVVALRRRRHTFKGDYSTKKHVYGNGYSKAGIPQHHPPMAQNLQYPDDSDDEKKAGPLGGSSYEEEEEEEEGGGGGERKVGGPHPKYDEDAKRPYFTVDEAEARQDGYGDRTLGYQYDPEQLDLAENMVSQNDGSFISKKEWYV
# modifications: left off: small tags and cut ends
# notes: as for B1
# B6: Δ28-312: nectin-1 ectodomain truncation mutant, V5 and flag tagged (protein)
# chain: CEATNPIGTRSGQVEVNITEFPYTPSPPEHGRRAGPVPTAIIGGVAGSILLVLIVVGGIVVALRRRRHTFKGDYSTKKHVYGNGYSKAGIPQHHPPMAQNLQYPDDSDDEKKAGPLGGSSYEEEEEEEEGGGGGERKVGGPHPKYDEDAKRPYFTVDEAEARQDGYGDRTLGYQYDPEQLDLAENMVSQNDGSFISKKEWYV
# modifications: left off: small tags and cut ends
# notes: as for B1
# B7: T310A: T310A point mutant of nectin-1 (protein, listed as Homo sapiens)
# chain: MARMGLAGAAGRWWGLALGLTAFFLPGVHSQVVQVNDSMYGFIGTDVVLHCSFANPLPSVKITQVTWQKSTNGSKQNVAIYNPSMGVSVLAPYRERVEFLRPSFTDGTIRLSRLELEDEGVYICEFATFPTGNRESQLNLTVMAKPTNWIEGTQAVLRAKKGQDDKVLVATCTSANGKPPSVVSWETRLKGEAEYQEIRNPNGTVTVISRYRLVPSREAHQQSLACIVNYHMDRFKESLTLNVQYEPEVTIEGFDGNWYLQRMDVKLTCKADANPPATEYHWTTLNGSLPKGVEAQNRTLFFKGPINYSLAGAYICEATNPIGTRSGQVEVNITEFPYTPSPPEHGRRAGPVPTAIIGGVAGSILLVLIVVGGIVVALRRRRHTFKGDYSTKKHVYGNGYSKAGIPQHHPPMAQNLQYPDDSDDEKKAGPLGGSSYEEEEEEEEGGGGGERKVGGPHPKYDEDAKRPYFTVDEAEARQDGYGDRTLGYQYDPEQLDLAENMVSQNDGSFISKKEWYV
# B8: Y311A: Y311A point mutant of nectin-1 (protein, listed as Homo sapiens)
# chain: B7 chain with A313T, Y314A
# Target: T1, BACE1 (Homo sapiens, UniProt P56817)
# T1 construct: expressed in transfected cells; host or cells: HEK 293
# Test: Co-immunoprecipitation of nectin-1 truncation mutants with BACE1 co-expressed in HEK 293 cells
# Format: binding
# Conditions: 48 hr. after transfection
# Experimental: To define the minimal region within the ectodomain of nectin-1 required for BACE1 interaction, immunoprecipitations between the nectin-1 truncation mutants and BACE1 were performed. BACE1 and full length or truncated nectin-1 were co-expressed in HEK 293 cells and harvested 48 hr. after transfection. To confirm to the efficiencies of the co-transfections, equal volumes of cell lysate were loaded on SDS-PAGE gels and analyzed by Western blot. Transfection efficiency was similar for nectin-1 and its derivates (FIG. 10A) and BACE1 (FIG. 10B). Immunoprecipitation was performed with a nectin-1 cytoplasmic specific antibody and precipitates were analyzed on two separate 10% SDS-PAGE. Western blots were probed with anti-nectin-1 (FIG. 10C) or anti-BACE1 (FIG. 10D) antibodies. The nectin-1 antibody directly immunoprecipitated the respective nectin-1 polypeptides and processed CTFs (FIG. 10C). Furthermore, BACE1, both monomer and dimer, was immunoprecipitated by the nectin-1 antibody, confirming the association of BACE1 with nectin-1.
# T1 sequence (P56817 46-501, species assumed): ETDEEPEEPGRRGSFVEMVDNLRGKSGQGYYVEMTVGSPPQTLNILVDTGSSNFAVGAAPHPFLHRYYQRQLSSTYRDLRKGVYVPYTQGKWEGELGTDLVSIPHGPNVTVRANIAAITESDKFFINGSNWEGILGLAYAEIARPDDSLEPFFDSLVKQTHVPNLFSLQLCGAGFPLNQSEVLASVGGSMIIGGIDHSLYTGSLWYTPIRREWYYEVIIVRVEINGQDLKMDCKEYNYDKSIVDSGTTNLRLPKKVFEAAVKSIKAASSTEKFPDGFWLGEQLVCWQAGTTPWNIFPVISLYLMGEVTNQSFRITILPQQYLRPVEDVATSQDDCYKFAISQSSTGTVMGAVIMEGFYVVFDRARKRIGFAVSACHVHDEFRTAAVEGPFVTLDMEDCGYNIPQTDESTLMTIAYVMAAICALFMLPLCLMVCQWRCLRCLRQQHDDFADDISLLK
row,association with BACE1 (co-immunoprecipitation with nectin-1 antibody),Molecule
1,Association with BACE1 was also detected,B1
2,interacted with BACE1 very strongly,B2
3,did not associate with BACE1,B3
4,Association with BACE1 was also detected,B4
5,interacted with BACE1 very strongly,B5
6,Association with BACE1 was also detected,B6

# Target: T1, BACE1
# Test: Co-immunoprecipitation of nectin-1 point mutants with BACE1 co-expressed in HEK 293 cells
# Format: binding
# Conditions: 48 hr. after transfection
# Experimental: To express how these point mutations affect the association of nectin-1 with BACE1, physical association of the mutants was examined by immunoprecipitation. We co-expressed BACE1 and nectin-1 or one of the cleavage refractory point mutants in HEK 293 cells. Cells were harvested and lysed in lysis buffer 48 hr. after transfection. To confirm the co-transfection efficiency of nectin-1 or it derivatives and BACE1, equal volumes of cell lysates were analyzed by 10% SDS-PAGE followed by Western blotting. Transfection efficiencies for nectin-1 and derivatives and BACE1 were similar in each sample (FIG. 12A—nectin-1, FIG. 12B—BACE1). Co-expression of nectin-1 with BACE1 increased the amount of CTF bands compared to nectin-1 alone (FIG. 12A, lanes 3 and 4).
# Immunoprecipitation was performed using a C-terminal specific nectin-1 antibody. […] The intensities of nectin-1 CTF bands were much stronger when nectin-1 was co-expressed with BACE1. BACE1 was also detected in nectin-1 complexes (FIG. 12D).
row,Molecule,"intensity of BACE1 bands co-precipitated, compared with wild type nectin-1"
1,B7,much greater than that precipitated by wild type nectin-1
2,B8,much greater than that precipitated by wild type nectin-1

# Test system: processing of wild type nectin-1
# Test: Co-transfection of nectin-1 mutants with wild-type nectin-1 in HEK 293 cells, Western blot of CTF bands
# Format: cell-based
# Conditions: 0.5 μg wild-type nectin-1 plasmid, 24 hr. post-transfection
# Experimental: Mutants T310A and Y311A were tested to see if they would interfere with the processing of wild type nectin-1. HEK 293 cells were co-transfected with 0.5 μg of a plasmid containing wild-type nectin-1 and with a plasmid containing no insert (control), green fluorescent protein (GFP), nectin-1 T310A or nectin-1 Y311A. Co transfection efficiency was approximately 85%. Cells were harvested 24 hr. post-transfection and samples were analyzed on a 12% SDS-PAGE gel. […] Co-transfection with vector alone or GFP had no effect on nectin-1 processing. […] The residual CTF bands detected in the T310A and Y311A samples are likely due to the 15% of the cell population that received only the wild type nectin-1 construct.
row,Molecule,production of CTF bands of co-transfected wild type nectin-1
1,B7,substantially reduced
2,B8,substantially reduced
